In US10766960 (dated 2020):
Like-named read-outs stand apart in the source and are kept apart here.

Assays:
Assay in all cases: SPR
FcgRIIIa F [1] = target: T1, FcgRIIIa F (human, UniProt P08637)
FcgRIa [2] = target: T2, FcgRIa (human, UniProt P12314)
T2 chain: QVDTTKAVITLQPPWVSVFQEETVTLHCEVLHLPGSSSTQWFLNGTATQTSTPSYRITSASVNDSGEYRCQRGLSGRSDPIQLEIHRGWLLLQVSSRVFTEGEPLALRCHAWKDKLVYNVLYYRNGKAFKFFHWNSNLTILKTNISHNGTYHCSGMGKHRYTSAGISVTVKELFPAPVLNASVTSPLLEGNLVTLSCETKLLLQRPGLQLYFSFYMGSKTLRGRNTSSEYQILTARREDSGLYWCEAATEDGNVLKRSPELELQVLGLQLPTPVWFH

FcgRIIb [3] = target: T3, FcgRIIb (human, UniProt P31994)
T3 chain: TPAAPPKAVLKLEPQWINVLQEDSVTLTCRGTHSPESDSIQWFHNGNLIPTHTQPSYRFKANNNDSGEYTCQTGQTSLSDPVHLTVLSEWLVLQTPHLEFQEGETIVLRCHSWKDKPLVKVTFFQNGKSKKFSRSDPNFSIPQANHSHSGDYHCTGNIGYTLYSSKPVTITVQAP

FcgRIIIa F [4] = target: T1, FcgRIIIa F; remark: listed apart in the source
FcgRIa [5] = target: T2, FcgRIa
FcgRIa [6] = target: T2, FcgRIa
FcgRIIb [7] = target: T3, FcgRIIb
FcgRIIIa F [8] = target: T1, FcgRIIIa F; remark: listed apart in the source
FcgRIIa R [9] = target: T4, FcgRIIa R (human, UniProt P12318)
T4 chain: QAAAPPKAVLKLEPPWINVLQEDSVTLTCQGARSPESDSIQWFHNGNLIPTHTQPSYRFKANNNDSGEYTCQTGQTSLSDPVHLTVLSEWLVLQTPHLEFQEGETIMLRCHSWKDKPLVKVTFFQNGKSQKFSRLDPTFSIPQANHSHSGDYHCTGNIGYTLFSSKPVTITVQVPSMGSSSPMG

FcgRIIa H [10] = target: T5, FcgRIIa H (human, UniProt P12318)
T5 chain: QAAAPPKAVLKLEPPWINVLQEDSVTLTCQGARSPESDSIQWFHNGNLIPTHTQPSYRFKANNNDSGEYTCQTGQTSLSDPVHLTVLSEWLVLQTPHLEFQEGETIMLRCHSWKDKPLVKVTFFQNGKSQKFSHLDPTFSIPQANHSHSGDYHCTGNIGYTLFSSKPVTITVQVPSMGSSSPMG

FcgRIIIa V [11] = target: T6, FcgRIIIa V (human, UniProt P08637)
FcgRIIa H [12] = target: T5, FcgRIIa H
FcgRIIIa V [13] = target: T6, FcgRIIIa V; remark: listed apart in the source
FcgRIIa R [14] = target: T4, FcgRIIa R
FcgRIIa H [15] = target: T5, FcgRIIa H
FcgRIIa R [16] = target: T4, FcgRIIa R
FcgRIIb [17] = target: T3, FcgRIIb
FcgRIIIa V [18] = target: T6, FcgRIIIa V; remark: listed apart in the source
FcgRIIa R [19] = target: T4, FcgRIIa R
FcgRIIIa V [20] = target: T6, FcgRIIIa V; remark: listed apart in the source
FcgRIIa H [21] = target: T5, FcgRIIa H

T1 sequence (P08637 17-208): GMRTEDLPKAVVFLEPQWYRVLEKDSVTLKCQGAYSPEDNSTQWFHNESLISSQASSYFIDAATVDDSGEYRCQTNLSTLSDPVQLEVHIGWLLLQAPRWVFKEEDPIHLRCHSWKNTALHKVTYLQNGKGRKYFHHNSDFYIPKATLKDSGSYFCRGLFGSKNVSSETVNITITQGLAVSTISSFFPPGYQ
T6 sequence (P08637 17-208 F176V): as the sequence (P08637 17-208) above, with F160V counted along it

B1: H240-Kn120/H240-Hl068/L73-k0 (antibody)
chain 1: QDQLVQSGAEVKKPGASVKVSCKASGFNIKDTYIQWVRQAPGQGLEWMGRIDPLRKQTKYREKFEGRVTITADTSTNTAYMELSSLRSEDTAVYYCVRSGREFDYWGQGTLVTVSSASTKGPSVFPLAPSSKSTSGGTAALGCLVKDYFPEPVTVSWNSGALTSGVHTFPAVLQSSGLYSLSSVVTVPSSSLGTQTYICNVNHKPSNTKVDKKVEPKSCDKTHTCPPCPAPEYYWGPMVFLFPPKPKDTLMISRTPEVTCVVVDVSDEDPEVKFNWYVDGVEVHNAKTKPREEQYNATYRVVSVLTVLHQDWLNGKEYKCKVSNKDLPAPIEKTISKAKGQPREPQVCTLPPSRDELTKNQVSLWCLVKGFYPSDIAVEWESNGQPENNYKTTPPVLDSDGSFFLYSKLTVDKSRWQQGNVFSCSVMHEALHNHYTQKSLSLSP
chain 2: QDQLVQSGAEVKKPGASVKVSCKASGFNIKDTYIQWVRQAPGQGLEWMGRIDPLRKQTKYREKFEGRVTITADTSTNTAYMELSSLRSEDTAVYYCVRSGREFDYWGQGTLVTVSSASTKGPSVFPLAPSSKSTSGGTAALGCLVKDYFPEPVTVSWNSGALTSGVHTFPAVLQSSGLYSLSSVVTVPSSSLGTQTYICNVNHKPSNTKVDKKVEPKSCDKTHTCPPCPAPELLGGPSVFLFPPKPKDTLMISRTPEVTCVVVDVSHEEPEVKFNWYVDGVEVHNAKTKPREEQYNSTYRVVSVLTVLHQDWLNGKEYKCKVSNDALPKPIEETISKAKGQPREPQVYTLPPSRCELTKNQVSLSCAVKGFYPSDIAVEWESNGQPENNYKTTPPVLDSDGSFFLVSKLTVDKSRWQQGNVFSCSVMHEALHNHYTQKSLSLSP
chain 3: DIQMTQSPSSLSASVGDRVTITCRASQDIHKYIAWYQQKPGQAPRLLIQYTSTLQPGVPSRFSGSGSGTDYTFTISSLQPEDIATYYCLQYEQLRTFGGGTKVEIKRTVAAPSVFIFPPSDEQLKSGTASVVCLLNNFYPREAKVQWKVDNALQSGNSQESVTEQDSKDSTYSLSSTLTLSKADYEKHKVYACEVTHQGLSSPVTKSFNRGEC
For B1, the Kd (FcgRIIIa F [1]) was 2.4 nM, the Kd (FcgRIa [2]) was 0.37 nM and the Kd (FcgRIIb [3]) was 150 nM. For the same binder, the Kd (FcgRIIIa F [4]) was 2.4 nM, the Kd (FcgRIa [5]) was 0.11 nM and the Kd (FcgRIa [6]) was 0.16 nM. It also gave a Kd (FcgRIIb [7]) of 150 nM, a Kd (FcgRIIIa F [8]) of 2.2 nM and a Kd (FcgRIIa R [9]) of 23 nM. The Kd (FcgRIIa H [10]) was 44 nM, the Kd (FcgRIIIa V [11]) was 0.66 nM and the Kd (FcgRIIa H [12]) was 41 nM. It also gave a Kd (FcgRIIIa V [13]) of 0.33 nM, a Kd (FcgRIIa R [14]) of 20 nM and a Kd (FcgRIIa H [15]) of 59 nM. It also gave a Kd (FcgRIIa R [16]) of 17 nM, a Kd (FcgRIIb [17]) of 150 nM and a Kd (FcgRIIIa V [18]) of 0.36 nM.

B2: IL6R-BP208/IL6R-L (antibody)
chain 1: QVQLQESGPGLVKPSETLSLTCAVSGHSISHDHAWSWVRQPPGEGLEWIGFISYSGITNYNPSLQGRVTISRDNSKNTLYLQMNSLRAEDTAVYYCARSLARTTAMDYWGEGTLVTVSSASTKGPSVFPLAPSSKSTSGGTAALGCLVKDYFPEPVTVSWNSGALTSGVHTFPAVLQSSGLYSLSSVVTVPSSSLGTQTYICNVNHKPSNTKVDKKVEPKSCDKTHTCPPCPAPDLLGDDSVFLFPPKPKDTLMISRTPEVTCVVVDVSDEDGEVKFNWYVDGVEVHNAKTKPREEQYNSTYRVVSVLTVLHQDWLNGKEYKCKVSNKALPRPIEKTISKAKGQPREPQVYTLPPSRDELTKNQVSLTCLVKGFYPSDIAVEWESNGQPENNYKTTPPVLDSDGSFFLYSKLTVDKSRWQQGNVFSCSVMHEALHNHYTQESLSLSP
chain 2: not shown
For B2, the Kd (FcgRIIa R [19]) was 850 nM, the Kd (FcgRIIIa V [20]) was 53000 nM and the Kd (FcgRIIa H [21]) was 8300 nM.

B3: H240-Kn037/H240-Hl036/L73-k0 (antibody)
chain 1: QDQLVQSGAEVKKPGASVKVSCKASGFNIKDTYIQWVRQAPGQGLEWMGRIDPLRKQTKYREKFEGRVTITADTSTNTAYMELSSLRSEDTAVYYCVRSGREFDYWGQGTLVTVSSASTKGPSVFPLAPSSKSTSGGTAALGCLVKDYFPEPVTVSWNSGALTSGVHTFPAVLQSSGLYSLSSVVTVPSSSLGTQTYICNVNHKPSNTKVDKKVEPKSCDKTHTCPPCPAPELLAGPDVFLFPPKPKDTLMISRTPEVTCVVVDVSHEDPEVKFNWYVDGVEVHNAKTKPREEQYNSTYRVVSVLTVLHQDWLNGKEYKCKVSNKALPAPEEKTISKAKGQPREPQVCTLPPSRDELTKNQVSLWCLVKGFYPSDIAVEWESNGQPENNYKTTPPVLDSDGSFFLYSKLTVDKSRWQQGNVFSCSVMHEALHNHYTQKSLSLSP
chain 2: QDQLVQSGAEVKKPGASVKVSCKASGFNIKDTYIQWVRQAPGQGLEWMGRIDPLRKQTKYREKFEGRVTITADTSTNTAYMELSSLRSEDTAVYYCVRSGREFDYWGQGTLVTVSSASTKGPSVFPLAPSSKSTSGGTAALGCLVKDYFPEPVTVSWNSGALTSGVHTFPAVLQSSGLYSLSSVVTVPSSSLGTQTYICNVNHKPSNTKVDKKVEPKSCDKTHTCPPCPAPELLAGPDVFLFPPKPKDTLMISRTPEVTCVVVDVSHEDPEVKFNWYVDGVEVHNAKTKPREEQYNSTYRVVSVLTVLHQDWLNGKEYKCKVSNKALPAPEEKTISKAKGQPREPQVYTLPPSRCELTKNQVSLSCAVKGFYPSDIAVEWESNGQPENNYKTTPPVLDSDGSFFLVSKLTVDKSRWQQGNVFSCSVMHEALHNHYTQKSLSLSP
chain 3: DIQMTQSPSSLSASVGDRVTITCRASQDIHKYIAWYQQKPGQAPRLLIQYTSTLQPGVPSRFSGSGSGTDYTFTISSLQPEDIATYYCLQYEQLRTFGGGTKVEIKRTVAAPSVFIFPPSDEQLKSGTASVVCLLNNFYPREAKVQWKVDNALQSGNSQESVTEQDSKDSTYSLSSTLTLSKADYEKHKVYACEVTHQGLSSPVTKSFNRGEC
B3 was tested, and the Kd (FcgRIa [2]) was 0.098 nM, the Kd (FcgRIIIa F [4]) was 21 nM and the Kd (FcgRIIb [7]) was 380 nM. It also gave a Kd (FcgRIIIa V [11]) of 6.8 nM, a Kd (FcgRIIa H [15]) of 46 nM and a Kd (FcgRIIa R [16]) of 29 nM.
